Substrate in the data set: O=CCCO
Nature of the data set: purified protein. It counts as biochemical, Azospirillum brasilense. Particulars: 500 μM NAD, 100 mM Tris-HCl pH 8.0, 25 °C, 50 nM enzyme, 0.5-10 mM 3HPA.

Substitutions are numbered along the chain they refer to. Names and notes keep the numbering of the source.

Among the data in article PMC9628839, “Structure Based Protein Engineering of Aldehyde Dehydrogenase from Azospirillum brasilense to Enhance Enzyme Activity against Unnatural 3-Hydroxypropionaldehyde” (Journal of Microbiology and Biotechnology, 2021) are Km, kcat and kcat/Km values, retold here.

B1: AbKGSADH (Azospirillum brasilense; P444F) (protein)
chain: ANVTYTDTQLLIDGEWVDAASGKTIDVVNPATGKPIGRVAHAGIADLDRALAAAQSGFEAWRKVPAHERAATMRKAAALVRERADAIAQLMTQEQGKPLTEARVEVLSAADIIEWFADEGRRVYGRIVPPRNLGAQQTVVKEPVGPVAAFTPWNFPVNQVVRKLSAALATGCSFLVKAPEETPASPAALLRAFVDAGVPAGVIGLVYGDPAEISSYLIPHPVIRKVTFTGSTPVGKQLASLAGLHMKRATMELGGHAPVIVAEDADVALAVKAAGGAKFRNAGQVCISPTRFLVHNSIRDEFTRALVKHAEGLKVGNGLEEGTTLGALANPRRLTAMASVIDNARKVGASIETGGERIGSEGNFFAPTVIANVPLDADVFNNEPFGPVAAIRGFDKLEEAIAEANRLPFGLAGYAFTRSFANVHLLTQRLEVGMLWINQPATFWPEMPFGGVKDSGYGSEGGPEALEPYLVTKSVTVMAV
For orientation: Km means the concentration of substrate that gives half-maximal velocity. The term kcat denotes the number of substrate molecules converted per active site and unit of time at saturation. One may read the kcat/Km as the second-order rate constant that governs catalysis at low substrate concentration. Take B1: the Michaelis constant (Km) is 4.714 ± 0.547 mM, the kcat turned out to be 19.5 ± 1.04 s⁻¹ and the specificity constant (kcat/Km) came out at 4140 M⁻¹ s⁻¹.

B2: AbKGSADH (Azospirillum brasilense; S109G) (protein)
chain: B1 chain with S108G, F443P
Consider B2, for which the Km came to 1.646 ± 0.726 mM, the kcat was found to be 6 ± 0.877 s⁻¹ and the kcat/Km stood at 3640 M⁻¹ s⁻¹.

B3: AbKGSADH (Azospirillum brasilense; I288T) (protein)
chain: B1 chain with I287T, F443P
Consider B3, for which the Km is reported as 4.593 ± 2.814 mM, the catalytic constant (kcat) is 6.12 ± 1.69 s⁻¹ and the kcat/Km came out at 1330 M⁻¹ s⁻¹.

B4: AbKGSADH (Azospirillum brasilense; P444S) (protein)
chain: B1 chain with F443S
For B4, the Michaelis constant (Km) is 4.690 ± 2.996 mM, the kcat is 17.3 ± 5.1 s⁻¹ and the kcat/Km was 3700 M⁻¹ s⁻¹.

B5: AbKGSADH (Azospirillum brasilense; R281F) (protein)
chain: B1 chain with R280F, F443P
Consider B5, for which the Michaelis-Menten constant (Km) was found to be 3.808 ± 0.728 mM, the kcat was determined as 21.9 ± 1.8 s⁻¹ and the kcat/Km stood at 5760 M⁻¹ s⁻¹.

B6: AbKGSADH (Azospirillum brasilense) (protein)
chain: B1 chain with F443P
Consider B6, for which the Km came out at 4.581 ± 0.921 mM, the catalytic constant (kcat) came to 21.5 ± 1.99 s⁻¹ and the kcat/Km worked out at 4700 M⁻¹ s⁻¹.

B7: AbKGSADH (Azospirillum brasilense; R281Y) (protein)
chain: B1 chain with R280Y, F443P
On to B7, for which the Michaelis constant (Km) is 2.338 ± 0.372 mM, the kcat was found to be 26.6 ± 1.56 s⁻¹ and the kcat/Km stood at 11400 M⁻¹ s⁻¹.

B8: AbKGSADH (Azospirillum brasilense; S109L) (protein)
chain: B1 chain with S108L, F443P
B8: the Michaelis constant (Km) is 4.156 ± 1.377 mM, the turnover number (kcat) was 17 ± 2.5 s⁻¹ and the kcat/Km stood at 4100 M⁻¹ s⁻¹.

B9: AbKGSADH (Azospirillum brasilense; R281Q) (protein)
chain: B1 chain with R280Q, F443P
On to B9, for which the Km amounted to 5.764 ± 1.462 mM, the turnover number (kcat) is 31.5 ± 3.94 s⁻¹ and the catalytic efficiency (kcat/Km) is 5470 M⁻¹ s⁻¹.

B10: AbKGSADH (Azospirillum brasilense; P444G) (protein)
chain: B1 chain with F443G
As for B10, the Km was found to be 3.512 ± 2.070 mM, the kcat was determined as 6.59 ± 1.58 s⁻¹ and the specificity constant (kcat/Km) was determined as 1880 M⁻¹ s⁻¹.

B11: AbKGSADH (Azospirillum brasilense; P444L) (protein)
chain: B1 chain with F443L
Take B11: the Michaelis constant (Km) came out at 4.204 ± 1.184 mM, the kcat stood at 18.8 ± 2.36 s⁻¹ and the kcat/Km was 4480 M⁻¹ s⁻¹.
